Experiment: yeast display, Sf9 membrane polyspecificity reagent, FACS + sequencing; frameworks hold sequencing errors
Summary of the method: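 Nanobodies came from a synthetic yeast display library in Saccharomyces cerevisiae BJ5465, induced with galactose for 36–48 hours and stained for 1 hour at 4 °C with 10% biotinylated, detergent-solubilized Sf9 membrane reagent. Cells were enriched on streptavidin microbeads and then FACS-sorted, with low and high (top ~1%) gates set on anti-HA fluorescence for expression and streptavidin fluorescence for reagent binding. Each polyreactivity label reflects the gate a clone came from. Genes were amplified by colony PCR, sequenced by MiSeq 2 × 250 and filtered by CDR length.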

Row | Sequence | polyreactivity (PSR sort gate)
1 | QVQLVESGGGLLQAGGSLPLSCAASGFTFVPYAMGLYIQAPGKERELDAAISSRGDSTYYADSVKGRFTISRDNAKNTVYLQMIRLSPEDTAFYYCIARTTPHMDYWGQGTQVTVSS | low polyreactivity
2 | QVQLVESGRGLVQAGGSLRLSCAASGFTFAPNAMGWYRQAPGKDRELVARIDRAGSTYYADSVKGRFTISRDNAKNTVYLQMNSLKPEDTAVYYCATDYHGQPSPPYQSIKVDYWGQGTQVTVSS | low polyreactivity
3 | QVQLVESGGGLVQAGGSLRLSCAASGSIFDVNAMGWYIQAPGKERELVAAISQRGTRTYYADSVKGRFTISRDNAKNTVYLQMNRLKPEDTAVYYCNRGGWRQYDSWGQGTQVTVSS | high polyreactivity
4 | QVQLVESGGGLVQAGGSLRVSCAASGFIFGDYAMGWYRQAPGKERELVAAINRGASTYYADSVKGRFTISRDNAKNTVYLQMNSLKPEDTAVYYCAAAGYSRGGRGGYWGQGTHVTVSS | high polyreactivity
5 | QVQLVESGGGLVQAGGSLRLSCAASGRTSNFNAMGWYRQATGKERELVAAINSDGSTYYADSVKGRFTISRDNAKNTVYLQMNSLKPEDTAVDYCAVRKRPHGYLAFGYWGQGTQVTVSS | low polyreactivity
6 | QVQLVESGGGLVQAGGSLRLSCAASGRTFSYYAMGWYRQAPGKERELVAAIRRSSGTTYYADSVKGRFTISSDNAKNTVYLQMNSLKPEDTAVYYCNARSRRASIKRDYWGQGTQVTVSS | high polyreactivity
7 | QVQLVESGGGLVQAGGSLRLSCAASGSIFFPYAMGWYRQAPGKERELVAAISYSGTSRYYADSVKGRFTISRDNAKNTVYLQMNSLKPEDTAVYYCAAYSRYYASYDYWGQGTQVTVSS | high polyreactivity
8 | QVQLVESGGGLVQAGGSLRLSCAASGFIFAEYAMGWYRQAPGKERELVATINIGGSTYYADSVKGRFTISRDNAKNTVYLQMTSLKPEDTAVYYCAAEFWWGDGSQGIYDYDYWGQGTQVSVSS | low polyreactivity
9 | QVQLVESGGGLVQAGGSLRLSCAASGRIFVGNTMGWYRQAPGKERELVAAITYRGGSTYYADSVKGRFTISRDNAKNTVYLQMNSLKPEDTAVYYCATAGYWGGDYWGQGTQVNVSS | low polyreactivity
10 | QVQLVESGGGLVQAGGSLRLSCAASGSIFPVYAMGWYRQAPGKDRELVAAISFSTGSTYYADSVKGRFTISRDNAKNTVYLQMNSLKPEDTAVFYCAKYDYTDYEYWGQGTQVTVSS | high polyreactivity
11 | QVQLVESGGGLVQAGGSLRLSCAASGRILVGYAMGWYRQAPGKERELVAAITGSGASTYYADSVKGRFKISRDNAKNTVYLQMNSLKPEDTAVYYCAASYFNYGVGIWYDYWGQGTQVTVSS | high polyreactivity
12 | QVQLVESGGGLVQAGGSLRLSCAASGITFGPYAIGWYRQAPGKERELVAAISAGGGSTYYADSVKGRFTISRDNAKNSVYLQMNSLKPEDTAVYYCAAYLLHHYGGPEYYYWGQGTQVTVSS | high polyreactivity
13 | QVQLVESGGGLVQAGGSLRLSCAASGSIFTDNVMGWYRQAPGKERELVAAITYSAASTYYADSVKGRFTISRDNAKNTVYLQMNSLKPEDTAVYYCNARIIYRKWLFRSGTFNYWGQGTQVTVSS | low polyreactivity
14 | QVELVESGGGLVQAGGSLRLSCAASGFTFGYNAMGWYRQAPGKERELVAAIRLSGSSTYYADSVKGRFTISRDNAKNTVYLQMNSLNPEDTAVYYCAADGISHWLYRYDYWGQGTQVTVSS | low polyreactivity
15 | QVQLVESGGGLVQAGGSLRLSCAASGRTFGFNVMGWYRQAPGKERELVAAISWSGGSTYYADSVKGRFTISRDNAKNTVYLQMNSLKPEDTAVYYCNNRYVHRYGYWGQGTQVTVSS | low polyreactivity
16 | QVQLVESGGGLVQAGGSLRLSCAASGSIFWYNAMAWYRQAPGKERELVAAITGTGDRTYYADSVKGRFTISRDNAKNSVYLQMNSLKPEDSAVYYCAAAYGAYYPWGYDYWGQGTQVTVSS | low polyreactivity
17 | QVQLVESGGGLVQAGGSLRLSCAASGITFYEYAMGWYRQAPGKERELVAAISTSGGNTYYADSVKGRFTISRDNAKNTVYLQMKSLKPEDTAVYYCAAQGTASSYSGGDYWGQGTQVTVSS | low polyreactivity
18 | QVQLVESGGGLVQAGGSLRLSCAASGLIFRHYVMGWYRQAPGKERELVAAITSRGGTTYYADSVKGRFTISRDNAKNTVYLQMNSLKPEDTAVYYCATVHSYTIQRYDYWGQGTQVTVSS | high polyreactivity
19 | QVQLVESGGGLVQAGGSLRLSCAASGFTFSTYAMGWYRPAPGKERELGAAISRSGGSTYYADSVKGRFTISRDNAKNTVYLQMNSLKPEDTAVYYCAADGLRRESSYYYWAQGTQVTVSS | high polyreactivity
20 | QVQLVESGGGLVQAGGSLRLSCAASGITFRTYAMGWYRQAPGKERELVAGIRTRTGSTYYADSVKGRFTISRDNAKNTVYLQMNSLKPEDTAVYYCAAKGSGYYGRQRIYSYTYDYWGQGTQVTVSS | high polyreactivity
21 | QVQLVESGGGLVQAGGSLRLSCAASGFISSENAMGWYRQAPGKERELVAAISSGGSTNYADSVKGRFTISRDNAKNTVYLQMNSLKPEDTAVYYCAATLPGWYNEDDSWGQGTQVNVSS | low polyreactivity
22 | QVQLVESGGGLVQAGGSLRLSCAASGSTFDVYAMGWYRQAPGKERELVAVINTSGTRTYYADSVKGRFTISRDNAKNTVYLQMNSLKPEDTAVYYCNAGGHLEMNYWGLGTQVTVSS | low polyreactivity

Row | Sequence | polyreactivity (PSR sort gate)
23 | QVQLVESGGGLVQAGGSLRLSCAASGRIFYRNAMGWYRQAPGQERELDAGITRGGSTNYADSVKGRFTISRDNAKNTVYLQMNSLKPEDTAVYYCAKAIPAKFYSEAGYDYWGQGTQVTVSS | low polyreactivity
24 | QVQLVESGGGLVQAGGSLRLSFAASGRNFYRYAMGWYRQAPGKERELVAAISRGGRTNYADSVKGRFTISRDNAKNTGYLQMNSLKPEDTAVYYCAVTNFGALYDYWGQGTQVTVSS | high polyreactivity
25 | QVQLVESGGGLVQAGGSLRLSCAASGSTFYRNAMGWYRQAPGKERELVAAITSRGTRTFYADSVKGRFTISRDNAKNTVYLQMNSLKPEDTAVYYCAVTYQAEYEYDYWGQGTQVTVSS | low polyreactivity
26 | QVQLEESGGGLVQAGGSLRLSCAASGSTFWRYAMGWYRQAPGKERELVAAISWNGGSTYYADSVKGRFTISRDNAKNTDYLQMNSLKPEDTSVFYCNRRYPFYSRYNNDYWGQGTQVTVSS | high polyreactivity
27 | QVQLHESGGVLVQAGGSLRLSCAASGTISVHYNMCWYRQEPRQEREFVAGNSTGATTNYADSVKGRFTISRDNENNTVYLQMNSLKPEDTAVYYCAAHIYGQDHFYYWGQGTQVTVSS | low polyreactivity
28 | QVLLVESGGGLVQAGGSVRLICAASGSIFKKYALGWYRPATGEERELVAAISWRGGRTYYADSVTGRFTISRDNAKNTVFLQMNSLKPEDTAVYYCAKERYVSYRGGPWVDYWGQGTQVTVSS | high polyreactivity
29 | QVQLVESGGGLVQAGGSLRLSCAASGSIFGRNAMGWYRQAPGKERELVARISSRGGSTYYADSVKGRFTISRDNAKNTVYLQLISLKREDTALYYCAAEGGDRYALYTFYTWGQGTQVTVSS | high polyreactivity
30 | QVQLVESGGGLVQAGGSLRLSCAASGLIFVDNAMGWYRQAPGKERELVAAIESGGSTNYADSVKGRFTISRDNAKNTVYLHMNSLKPEDTAVYYCAADWIYAPWYYQESVEYYYWGQGTQVTVSS | low polyreactivity
31 | QFQLVESGGGLVQAGGSLRLSCAASGGTLYIYAMGWYRKAPGKERELVAAIRGRGGSTYADSVKGRFTISRDNAKNTVYLQMNSLKPVDTAVYYCAAYARQRSNTIYYDYWGQGTQVTVSS | high polyreactivity
32 | QVQLVESGGGLVQAGGSLRLSCAASGSIFVKNAMGWYRQAPGKERELVARITYSGGSTYYADSVKGRFTISRDNAKNTVYLQMNSLKPEDTADYYCDTDGNLRTAGYAYDHYYWGQGTQVTVSS | high polyreactivity
33 | QVQLVESGGGLVQAGGSLRLSCAATGGIFGYYSMGWYRQSPGKESELVAAINYSGGSTYYADSVKGRFTISRDNAKNTVYLQMNSLKPEDTAVYYCNAVVRDYTFRYYYWGQGTQVTVSS | low polyreactivity
34 | QVQLVDSGGGLVQAGGSLRLSCAASGFIFVKYAMGWYRQAPGKERELVAAITTSGTGTFYADSVKGRFTISRDNAKNTVYLQMNSLKPEDTAVYYCNALGHPGDDWGQGTQVTVSS | low polyreactivity
35 | QVQLVESGVGLVQAGGSLRLSCAASGSTLFVYTKGWSRQAPGKERELVAAITSSGGSTYYADSVKGRFTISRDKAKNTVYLQMNSLKAQDTAVYYCAAKELGSPYDYWGQGTQVTVSS | high polyreactivity
36 | QVQLVETGGGLVQAGGSLRISCAASGLTFYLYAMGWYRQSPGKERELVAAISSTGITNYADSVKGRFTISRDNAKNTVYLQMNSLNPEDTAVYYCNADYHPFFFEFNDWGQGTQVTVSS | high polyreactivity
37 | QVQLVESGGGLVQAGGSLRLSCAASGRTMAVYAMGWDRQAPGKEREVVAAISWSGGTTYYADSVKGRFTISRDNAKNTVYLQMNSLKAEDTAVYYCAADSYTEVDYWGQGTQVTVSS | low polyreactivity
38 | QVQLVESGGGLVQAGGSLRLSCAASGRTIITYAMGWYRQAPGKERELVAAINSTDGTSYADSVKGRFTISRDNAKNTVYLQMNSLKPEDTAVYYCARGTEVKSGISYRFYYWGQGTQVTVSS | low polyreactivity
39 | QVQLVESGGGLVQAGGSLRLSCAASGFIFRHYAMGWYRQAPGKERELVAGINTSGGSTHYADSVKGRFTISRDNAKNTVYLQMNSLKPEDTAVYYCAADVYRYYAGSRYYYWGQGSQVTVSS | low polyreactivity
40 | QVQLVESGGGLVQAGGSLRLSCAASGFIFRGYAMGWYRQAPGKERELVAAISRRGGSTYYADSVKGRFTISRHNAKNTVYLLMNSLKPEDTAVYYCNADTTQQGNVRVGYWGQGTQVTVSS | high polyreactivity
41 | QVQLVESGGGLVQAGGSLRLSCAASGFTYGVYAMGWYRPAPGKERELVAAISRRGTSTYYADSVKGRFTISRDNAKNTVYLQMNSLKPEDTAVYFCNARRYQVTVDHWGQGTQVTVSS | high polyreactivity
42 | QVQLVESGGGLVQAGGSLRLSCAASGIIFDDYAMGWYRQAPGKERELVAAINSNGGTTYYADSVKGRFTISRDNAKNTVYLHMNSLKPEDTAVYYCAKAYPGTYREYDYWGQGTQVTVSS | high polyreactivity
43 | QVQLVESGGGLVQAGGSLRLSCAASGFTFQYYVMGWYRQAPGKERELVAAISWSGGSTYYADSVKGRFSISRDNAKNTVYLQMNSLKPEDTAVYYCAAEYDEFLVRFGVWYWFDYWGQGTQVTVSS | high polyreactivity

Source: the nanobody polyreactivity screen of Harvey et al. (2022)
